The record followed here is the supplement of paper PMC9112550, “Optimization of the antimicrobial peptide Bac7 by deep mutational scanning” (BMC Biology, 2022).

This series has as its system Escherichia coli TOP10. In words: shrunken log2 fold change of peptide-encoding DNA abundance (4.5 h post-induction vs induction); higher = less antimicrobial activity (less host growth inhibition). Particulars: time post-induction: 4.5 h; library: site-saturation at positions 5, 18, 19, 20.
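Note: peptides expressed intracellularly from a pBAD plasmid library in pooled LB shake-flask culture, induced with 0.3% L-arabinose, DNA abundance read by NGS, three biological replicates, DESeq2 with apeglm shrinkage.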

In the case of RRIRHRPPRLPRPRPRPRPIPRP, the “shrunken log2 fold change” value worked out at 0.117. On to RRIRLRPPRLPRPRPRPDVCPRP, for which the “shrunken log2 fold change” value was 0.0271. Turning to RRIRWRPPRLPRPRPRPQMNPRP, the “shrunken log2 fold change” value was -0.243.

Take RRIRSRPPRLPRPRPRPNVCPRP: the “shrunken log2 fold change” value is -0.0635. As for RRIRHRPPRLPRPRPRPLTQPRP, the figure is -0.417. The same measure for RRIRKRPPRLPRPRPRPCCVPRP: 0.265; for RRIRDRPPRLPRPRPRPTRHPRP: 0.42; for RRIRPRPPRLPRPRPRPIMHPRP: -0.0526. The same measure for RRIRWRPPRLPRPRPRPKTEPRP: 0.111; for RRIRNRPPRLPRPRPRPNFSPRP: -0.0166. For RRIRVRPPRLPRPRPRPNENPRP, the “shrunken log2 fold change” value is -0.349. The same measure for RRIRERPPRLPRPRPRPGNRPRP: -0.0677; for RRIRMRPPRLPRPRPRPEIMPRP: 2.57. The same measure for RRIRARPPRLPRPRPRPGDDPRP: 0.846. As for RRIRMRPPRLPRPRPRPYCTPRP, the figure is -0.00702; as for RRIRLRPPRLPRPRPRPYAFPRP, 0.0808. As for RRIRCRPPRLPRPRPRPMVVPRP, the “shrunken log2 fold change” value was -0.0292.

Regarding RRIRKRPPRLPRPRPRPCMQPRP, the “shrunken log2 fold change” value was 0.121. The same measure for RRIRIRPPRLPRPRPRPMFNPRP: -0.923.

Take RRIRPRPPRLPRPRPRPLCDPRP: the “shrunken log2 fold change” value is -0.312. The same measure for RRIRRRPPRLPRPRPRPDDHPRP: -0.276; for RRIRERPPRLPRPRPRPVNVPRP: -0.531.

With RRIRIRPPRLPRPRPRPEAPPRP, the “shrunken log2 fold change” value was 0.366.

In the case of RRIRTRPPRLPRPRPRPNTPPRP, the “shrunken log2 fold change” value is -0.17.

Turning to RRIRLRPPRLPRPRPRPCKWPRP, the “shrunken log2 fold change” value is 0.117. The same measure for RRIRLRPPRLPRPRPRPYVEPRP: -0.322. As for RRIRQRPPRLPRPRPRPSMMPRP, the figure is -0.565; as for RRIRIRPPRLPRPRPRPMPCPRP, 0.00854. The same measure for RRIRARPPRLPRPRPRPCVDPRP: 0.581; for RRIRCRPPRLPRPRPRPVRCPRP: -0.00859; for RRIRQRPPRLPRPRPRPTIQPRP: 0.0369.

For the sequence RRIRTRPPRLPRPRPRPEFMPRP, the “shrunken log2 fold change” value stood at 0.0647.

Consider RRIRTRPPRLPRPRPRPKELPRP, for which the “shrunken log2 fold change” value turned out to be 0.16. Take RRIRKRPPRLPRPRPRPHYVPRP: the “shrunken log2 fold change” value was -0.0482. As for RRIRDRPPRLPRPRPRPSKMPRP, the figure is -0.0126.

As for RRIRVRPPRLPRPRPRPNWSPRP, the “shrunken log2 fold change” value is -0.114.

For RRIRPRPPRLPRPRPRPPTPPRP, the “shrunken log2 fold change” value is 0.417. As for RRIRNRPPRLPRPRPRPPLDPRP, the figure is 0.0724; as for RRIRCRPPRLPRPRPRPKRWPRP, 0.627; as for RRIRRRPPRLPRPRPRPTYKPRP, -0.163. As for RRIRARPPRLPRPRPRPPNNPRP, the figure is 0.0107.

As to RRIRERPPRLPRPRPRPGEMPRP, the “shrunken log2 fold change” value was -0.0373.

For the sequence RRIRHRPPRLPRPRPRPVMFPRP, the “shrunken log2 fold change” value is -0.0942.

Take RRIRSRPPRLPRPRPRPWMFPRP: the “shrunken log2 fold change” value is -0.0604. As for RRIRLRPPRLPRPRPRPGNVPRP, the figure is 0.0636. On to RRIRWRPPRLPRPRPRPLKEPRP, for which the “shrunken log2 fold change” value was -0.0713.

For RRIRGRPPRLPRPRPRPCGLPRP, the “shrunken log2 fold change” value worked out at 0.641. As for RRIRERPPRLPRPRPRPLTAPRP, the figure is -0.286.

Consider RRIRIRPPRLPRPRPRPICIPRP, for which the “shrunken log2 fold change” value was -0.127. The same measure for RRIRYRPPRLPRPRPRPSAPPRP: -0.353; for RRIRCRPPRLPRPRPRPAELPRP: 0.0853; for RRIRRRPPRLPRPRPRPIESPRP: 0.0332. Take RRIRKRPPRLPRPRPRPIPSPRP: the “shrunken log2 fold change” value was 0.422. As for RRIRARPPRLPRPRPRPKKYPRP, the figure is -0.232; as for RRIRHRPPRLPRPRPRPEARPRP, 0.192. As for RRIRSRPPRLPRPRPRPEQYPRP, the figure is -0.256; as for RRIRIRPPRLPRPRPRPCILPRP, -0.55; as for RRIRPRPPRLPRPRPRPLYFPRP, -0.602. The same measure for RRIRPRPPRLPRPRPRPGGDPRP: 0.496; for RRIRERPPRLPRPRPRPDIAPRP: -0.0321.

Regarding RRIRHRPPRLPRPRPRPYPIPRP, the “shrunken log2 fold change” value was -0.887. The same measure for RRIRMRPPRLPRPRPRPQTRPRP: 1.05; for RRIRLRPPRLPRPRPRPTQNPRP: 0.404; for RRIRSRPPRLPRPRPRPGTCPRP: 0.148. As for RRIRQRPPRLPRPRPRPKKEPRP, the figure is 0.00476. Consider RRIRRRPPRLPRPRPRPSKIPRP, for which the “shrunken log2 fold change” value is 0.0224. For the sequence RRIRMRPPRLPRPRPRPFTWPRP, the “shrunken log2 fold change” value was found to be 0.0653. The same measure for RRIRCRPPRLPRPRPRPHIRPRP: -0.585; for RRIRIRPPRLPRPRPRPHDHPRP: -0.174; for RRIRFRPPRLPRPRPRPMINPRP: -0.208.

In the case of RRIRCRPPRLPRPRPRPLASPRP, the “shrunken log2 fold change” value stood at 0.139.

Turning to RRIRDRPPRLPRPRPRPTVTPRP, the “shrunken log2 fold change” value came to 0.853. As for RRIRWRPPRLPRPRPRPHPCPRP, the figure is 0.12. The same measure for RRIRNRPPRLPRPRPRPYYLPRP: -0.673; for RRIRHRPPRLPRPRPRPYTIPRP: -0.0416.

For RRIRERPPRLPRPRPRPTFGPRP, the “shrunken log2 fold change” value stood at 0.0107. The same measure for RRIRMRPPRLPRPRPRPRIQPRP: 0.203. Turning to RRIRSRPPRLPRPRPRPKGFPRP, the “shrunken log2 fold change” value worked out at 0.158.

In the case of RRIRHRPPRLPRPRPRPSEYPRP, the “shrunken log2 fold change” value is -0.787. Take RRIRDRPPRLPRPRPRPDDEPRP: the “shrunken log2 fold change” value is 0.425. As for RRIRGRPPRLPRPRPRPEHNPRP, the figure is 0.327; as for RRIRKRPPRLPRPRPRPIVVPRP, 0.0157. The same measure for RRIRQRPPRLPRPRPRPWDRPRP: -0.127; for RRIRWRPPRLPRPRPRPIKQPRP: -0.00809.

With RRIRCRPPRLPRPRPRPAGAPRP, the “shrunken log2 fold change” value was 0.417.

In the case of RRIRTRPPRLPRPRPRPPFNPRP, the “shrunken log2 fold change” value was found to be 0.0539. In the case of RRIRYRPPRLPRPRPRPIWWPRP, the “shrunken log2 fold change” value was 0.136.

Take RRIRARPPRLPRPRPRPTISPRP: the “shrunken log2 fold change” value is 0.0389. As for RRIRFRPPRLPRPRPRPTTLPRP, the figure is -0.0787; as for RRIRIRPPRLPRPRPRPGMTPRP, -0.164. With RRIRYRPPRLPRPRPRPYHDPRP, the “shrunken log2 fold change” value is -0.386. As for RRIRGRPPRLPRPRPRPTMNPRP, the figure is 0.709. As for RRIRNRPPRLPRPRPRPLLHPRP, the figure is -0.135.

For RRIRMRPPRLPRPRPRPYPEPRP, the “shrunken log2 fold change” value was -0.121.

For the sequence RRIRARPPRLPRPRPRPAASPRP, the “shrunken log2 fold change” value came to 0.928. The same measure for RRIRDRPPRLPRPRPRPANPPRP: 0.234; for RRIRARPPRLPRPRPRPQPEPRP: 1.04; for RRIRERPPRLPRPRPRPRKCPRP: -0.0265.

Take RRIRARPPRLPRPRPRPEYQPRP: the “shrunken log2 fold change” value was 0.118. As for RRIRNRPPRLPRPRPRPPIHPRP, the figure is -0.582; as for RRIRERPPRLPRPRPRPPNRPRP, -0.289. As for RRIRSRPPRLPRPRPRPRMMPRP, the figure is 0.0975. Turning to RRIRDRPPRLPRPRPRPYKEPRP, the “shrunken log2 fold change” value was -0.372.

Turning to RRIRCRPPRLPRPRPRPDYDPRP, the “shrunken log2 fold change” value stood at 0.0933. For the sequence RRIRARPPRLPRPRPRPTNMPRP, the “shrunken log2 fold change” value was -0.275. The same measure for RRIRDRPPRLPRPRPRPFRWPRP: 0.317; for RRIRMRPPRLPRPRPRPMHGPRP: -0.0683; for RRIRRRPPRLPRPRPRPIWQPRP: 0.0175. As for RRIRARPPRLPRPRPRPHIDPRP, the figure is 0.205. Turning to RRIRKRPPRLPRPRPRPARLPRP, the “shrunken log2 fold change” value was 0.434. The same measure for RRIRRRPPRLPRPRPRPMCRPRP: 0.37. For RRIRCRPPRLPRPRPRPSIQPRP, the “shrunken log2 fold change” value is -0.655. As for RRIRCRPPRLPRPRPRPVWWPRP, the figure is 0.261; as for RRIRCRPPRLPRPRPRPEWCPRP, 0.145. As for RRIRPRPPRLPRPRPRPQCNPRP, the figure is -0.0419; as for RRIRLRPPRLPRPRPRPFRMPRP, -0.0132. The same measure for RRIRVRPPRLPRPRPRPMRDPRP: 0.0208. RRIRSRPPRLPRPRPRPLCIPRP: the “shrunken log2 fold change” value was -0.334. Take RRIRGRPPRLPRPRPRPNAVPRP: the “shrunken log2 fold change” value worked out at 0.924. As for RRIRHRPPRLPRPRPRPSLSPRP, the figure is -0.619; as for RRIRDRPPRLPRPRPRPGPNPRP, 0.0518.

For RRIRLRPPRLPRPRPRPEDSPRP, the “shrunken log2 fold change” value was -0.0351. The same measure for RRIRDRPPRLPRPRPRPSSQPRP: -0.0971; for RRIRARPPRLPRPRPRPERFPRP: 0.0769; for RRIRYRPPRLPRPRPRPNLPPRP: -0.479.
